{"source": "paper PMC10703047", "data": [{"biological_target": "DosR (DevR) (Mycobacterium tuberculosis H37Rv) (UniProt P9WMF9)", "sequence (P9WMF9 whole entry)": "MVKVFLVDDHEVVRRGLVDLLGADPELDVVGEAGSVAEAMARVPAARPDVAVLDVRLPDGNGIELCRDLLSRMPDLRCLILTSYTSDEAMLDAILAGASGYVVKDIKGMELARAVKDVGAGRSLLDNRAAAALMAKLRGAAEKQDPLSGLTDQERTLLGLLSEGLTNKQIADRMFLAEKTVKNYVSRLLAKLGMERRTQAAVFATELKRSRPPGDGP", "test": "EMSA", "values": [{"sequence": "AGCGGGATCGCATCACGCATTGGGTACCTCCGATGCTGGCGGATAAAGCCTTTCGTGCCGGCGGATGATCCGAGGTCGCTAGCTGGCGAGGGCCATGGGCGAGCA (double strand) [rv2625 promoter]", "binding": "no binding"}, {"sequence": "AGCGGTTCGGACTCCACCGCGTCTCCTGAGAGCTTCAGCGTTACATCGGTTGACGAGTTGAAGAATTTATCAGATAGTGCGGATGCGTGCGGGCCGCCCGCGGCCAATCGGCTACGGCGTACGCGAGTCAGC (double strand) [rv0081 promoter]", "binding": "no binding"}, {"sequence": "TAAGTGGACACGAACCGTAAGTTTAGACTTACGGATATTCTTCCGCAAGGGTGCGCGGGTGGTGTGACACGTGATCCGGGCATCCCGTCACCCATGGCGTTGGAGCCGAGTATCGGTTGGCGACGTTGGCCCGCCGGAAAGTCGACTGGTACAAGCATTTTCCGAGAACCCATGCGGCGCGTCGCGGCGATGACCGGCAGAGAGGCTCCCTAGTATTGCGGCGTGCTGGATCGCTATGGAACCGA (double strand) [rv1955 promoter]", "binding": "binds"}, {"sequence": "TGGTATCTGACACTGCTACGTTCCTTTCCGCTTGTTGGTCCACGTCCTTGCACGAGCCAACCGGACCATGGTCCGATTTATTCCGATCGCGTTACAGTGCAAAGGTGAGCGGCGCCGAGC (double strand) [rv3054 promoter]", "binding": "binds"}]}]}
